Data reported in the supplement of paper PMC7877785.
± gives the uncertainty stated by the source.

Experiment: self-splicing fitness, log relative to wild type (ln ratio); higher = more splicing; Tetrahymena group I intron in knt gene, E. coli kanamycin selection, DiMSum; sequences stand for … in CUCUCU…GGAGGGAAAAGUUAUCAGGCAUGCACCUGGUAGCUAGUCUUUAAACCAAUAGAUUGCAUCGGUUUAAAAGGCAAGACCGUCAAAUUGCGGGAAAGGGGUCAACAGCCGUUCAGUACCAAGUCUCAGGGGAAACUUUGAGAUGGCCUUGCAAAGGGUAUGGUAAUAAGCUGACGGACAUGGUCCUAACCACGCAGCCAAGUCCUAAGUCAACAGAUCUUCUGUUGAUAUGGAUGCAGUUCACAGACUAAAUGUCGGUCGGGGAAGAUGUAUUCUUCUCAUAAGAUAUAGUCGGACCUCUCCUUAAUGGGAGCUAGCGGAUGAAGUGAUGCAACACUGGAGCCGCUGGGAACUAAUUUGUAUGCGAAAGUAUAUUGAUUAGUUUUGGAGUACUCGUGGUCG
Summary of the method: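 Library with all eight P1ex-region intron nucleotides randomised, intron inside the knt kanamycin-resistance gene on pET-22b(+), in E. coli BL21(DE3). Cells grew overnight at 37°C or 30°C on LB agar with or without 25 μg/mL kanamycin (plus 100 μg/mL carbenicillin, 50 μM IPTG, 0.2% rhamnose), in six replicate transformations. Pooled colonies were amplicon-sequenced on Illumina HiSeq 2500. DiMSum fitness is the error-weighted combination of wild-type-normalised replicate fold changes, kanamycin versus none.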

Row | Sequence | self-splicing fitness (ln) (30 °C) | self-splicing fitness (ln) (37 °C)
1 | GCCUAGCAAUAUUACGCGGG | -1.74 ± 0.17 | -3.1 ± 0.43
2 | GCCUAGCAAUAUUACGGAAA | -0.507 ± 0.27 | -0.985 ± 0.26
3 | GCCUAGCAAUAUUACGGAGA | -1.16 ± 0.11 | -1.06 ± 0.11
4 | GCCUAGCAAUAUUACGGCCC | -3.4 ± 0.48 | -0.535 ± 0.27
5 | GCCUAGCAAUAUUACGGGCG | -2.03 ± 0.1 | -1.02 ± 0.097
6 | GCCUAGCAAUAUUACGGGCU | -3.65 ± 0.23 | -2.07 ± 0.24
7 | GCCUAGCAAUAUUACGGGGC |  | -2.81 ± 0.47
8 | GCCUAGCAAUAUUACGGUCA | -0.989 ± 0.13 | -0.494 ± 0.12
9 | GCCUAGCAAUAUUACGUAAU | -0.648 ± 0.071 | 0.224 ± 0.087
10 | GCCUAGCAAUAUUACGUAUA | -3.04 ± 0.25 | -1.63 ± 0.15
11 | GCCUAGCAAUAUUACGUCAG | -2.36 ± 0.26 | -0.81 ± 0.34
12 | GCCUAGCAAUAUUACGUGAU | -0.0579 ± 0.072 | 0.159 ± 0.079
13 | GCCUAGCAAUAUUACGUGCA | -2.35 ± 0.12 | -0.937 ± 0.1
14 | GCCUAGCAAUAUUACGUGGA | -0.477 ± 0.068 | 0.358 ± 0.076
15 | GCCUAGCAAUAUUACGUUAG | -4.33 ± 0.18 | -2.4 ± 0.16
16 | GCCUAGCAAUAUUACGUUUG | -2.89 ± 0.21 | -0.761 ± 0.13
17 | GCCUAGCAAUAUUACGUUUU | -1.7 ± 0.097 | -0.614 ± 0.12
18 | GCGAAGCAAUAUUACGAAGC | -2.71 ± 0.39 | -2.49 ± 0.36
19 | GCGAAGCAAUAUUACGAAUC | -2.47 ± 0.11 | -1.11 ± 0.12
20 | GCGAAGCAAUAUUACGAGGC |  | -1.65 ± 0.45
21 | GCGAAGCAAUAUUACGAUGA | -1.1 ± 0.11 | 0.105 ± 0.098
22 | GCGAAGCAAUAUUACGCAGC | -3.31 ± 0.25 | -2.06 ± 0.34
23 | GCGAAGCAAUAUUACGCAUA | -1.92 ± 0.2 | -1.76 ± 0.16
24 | GCGAAGCAAUAUUACGCGGA |  | -1.26 ± 0.36
25 | GCGAAGCAAUAUUACGCUCU | -1.7 ± 0.24 | -1.49 ± 0.38

Row | Sequence | self-splicing fitness (ln) (30 °C) | self-splicing fitness (ln) (37 °C)
26 | GCGAAGCAAUAUUACGCUGU | -1.5 ± 0.39 | 
27 | GCGAAGCAAUAUUACGGCGA | -0.0437 ± 0.14 | 0.0298 ± 0.15
28 | GCGAAGCAAUAUUACGGCGU | -2.68 ± 0.37 | -0.799 ± 0.46
29 | GCGAAGCAAUAUUACGGCUA | 0.15 ± 0.15 | -0.618 ± 0.12
30 | GCGAAGCAAUAUUACGGGAU | -3.58 ± 0.3 | -2.07 ± 0.26
31 | GCGAAGCAAUAUUACGGGCC |  | -1.37 ± 0.46
32 | GCGAAGCAAUAUUACGGGGA | -3.69 ± 0.23 | -3.12 ± 0.33
33 | GCGAAGCAAUAUUACGGUUC | -3.23 ± 0.2 | -1.24 ± 0.18
34 | GCGAAGCAAUAUUACGGUUU | -3.22 ± 0.13 | -1.62 ± 0.13
35 | GCGAAGCAAUAUUACGUACC | -1.02 ± 0.17 | 0.269 ± 0.19
36 | GCGAAGCAAUAUUACGUAGA | -3.57 ± 0.44 | -1.75 ± 0.37
37 | GCGAAGCAAUAUUACGUUAA | -1.65 ± 0.18 | -1.88 ± 0.23
38 | GCGCAGCAAUAUUACGAACA | -1.64 ± 0.12 | -1.32 ± 0.097
39 | GCGCAGCAAUAUUACGCACC | -3.7 ± 0.2 | -2.41 ± 0.25
40 | GCGCAGCAAUAUUACGCCCU |  | 0.00379 ± 0.44
41 | GCGCAGCAAUAUUACGCCGA | -0.753 ± 0.49 | -1.27 ± 0.28
42 | GCGCAGCAAUAUUACGCGAC | -1.77 ± 0.12 | -1.79 ± 0.18
43 | GCGCAGCAAUAUUACGCGGC |  | -3.69 ± 0.37
44 | GCGCAGCAAUAUUACGCGUA | -1.14 ± 0.082 | -1.39 ± 0.083
45 | GCGCAGCAAUAUUACGCUGG | -2.1 ± 0.1 | -2.13 ± 0.16
46 | GCGCAGCAAUAUUACGCUUU | -1.39 ± 0.068 | -0.38 ± 0.083
47 | GCGCAGCAAUAUUACGGAUC | -0.0635 ± 0.068 | 0.419 ± 0.083
48 | GCGCAGCAAUAUUACGGCGA | -0.0713 ± 0.075 | -0.173 ± 0.089
49 | GCGCAGCAAUAUUACGGCUC | -0.438 ± 0.12 | 0.47 ± 0.15
50 | GCGCAGCAAUAUUACGGGGA | -2.23 ± 0.14 | -0.687 ± 0.11

Row | Sequence | self-splicing fitness (ln) (30 °C) | self-splicing fitness (ln) (37 °C)
51 | GCGCAGCAAUAUUACGGUGG | -1.74 ± 0.059 | -0.842 ± 0.08
52 | GCGCAGCAAUAUUACGUAGC | -1.95 ± 0.11 | -0.709 ± 0.12
53 | GCGCAGCAAUAUUACGUAUG | -3.67 ± 0.23 | -1.8 ± 0.21
54 | GCGCAGCAAUAUUACGUCAA | -2.46 ± 0.14 | -0.0917 ± 0.1
55 | GCGCAGCAAUAUUACGUGGC | -1.81 ± 0.29 | -2.36 ± 0.29
56 | GCGCAGCAAUAUUACGUUGG | -1.81 ± 0.06 | -1.76 ± 0.097
57 | GCGCAGCAAUAUUACGUUUC | -1.35 ± 0.057 | -0.727 ± 0.074
58 | GCGGAGCAAUAUUACGACGA | -0.227 ± 0.16 | -0.189 ± 0.14
59 | GCGGAGCAAUAUUACGCAGC | -1.9 ± 0.35 | -2.35 ± 0.34
60 | GCGGAGCAAUAUUACGCCCU | -2.95 ± 0.45 | 
61 | GCGGAGCAAUAUUACGCGCG | -2.77 ± 0.34 | -2.83 ± 0.27
62 | GCGGAGCAAUAUUACGCGUU | -2.26 ± 0.24 | -1.23 ± 0.22
63 | GCGGAGCAAUAUUACGGAAA |  | -1.54 ± 0.46
64 | GCGGAGCAAUAUUACGGUGA | -2.38 ± 0.46 | 
65 | GCGGAGCAAUAUUACGUACG | -2.97 ± 0.28 | -2.71 ± 0.44
66 | GCGGAGCAAUAUUACGUACU | -1.85 ± 0.21 | -1.46 ± 0.22
67 | GCGGAGCAAUAUUACGUAUA |  | -2.2 ± 0.44
68 | GCGGAGCAAUAUUACGUCGA | -2.59 ± 0.32 | -1.83 ± 0.24
69 | GCGGAGCAAUAUUACGUGUG | -3.19 ± 0.17 | -2.77 ± 0.29
70 | GCGGAGCAAUAUUACGUUAU | -3.7 ± 0.19 | -2.81 ± 0.15
71 | GCGGAGCAAUAUUACGUUGC | -4.4 ± 0.42 | -2.78 ± 0.34
72 | GCGUAGCAAUAUUACGAAUC | -1.05 ± 0.17 | -0.37 ± 0.2
73 | GCGUAGCAAUAUUACGAAUU | -1.52 ± 0.1 | -0.549 ± 0.12
74 | GCGUAGCAAUAUUACGACAA | -0.888 ± 0.12 | -0.789 ± 0.13
75 | GCGUAGCAAUAUUACGAUAG | -2.2 ± 0.26 | -1.83 ± 0.34

Row | Sequence | self-splicing fitness (ln) (30 °C) | self-splicing fitness (ln) (37 °C)
76 | GCGUAGCAAUAUUACGAUCA | -0.167 ± 0.14 | 0.0769 ± 0.14
77 | GCGUAGCAAUAUUACGAUCU | -1.34 ± 0.17 | -0.0119 ± 0.18
78 | GCGUAGCAAUAUUACGAUGU | -2.18 ± 0.068 | -1.15 ± 0.096
79 | GCGUAGCAAUAUUACGAUUU | 0.253 ± 0.088 | -0.282 ± 0.09
80 | GCGUAGCAAUAUUACGCAAG | -3.32 ± 0.41 | 
81 | GCGUAGCAAUAUUACGCCAC |  | -2.26 ± 0.29
82 | GCGUAGCAAUAUUACGCCAG | -3.15 ± 0.41 | -2.32 ± 0.37
83 | GCGUAGCAAUAUUACGCCGG | -2.21 ± 0.21 | -3.92 ± 0.42
84 | GCGUAGCAAUAUUACGCGCA |  | -1.07 ± 0.35
85 | GCGUAGCAAUAUUACGCGUU | -1.14 ± 0.19 | -1.55 ± 0.22
86 | GCGUAGCAAUAUUACGGACU | -0.176 ± 0.13 | -0.78 ± 0.19
87 | GCGUAGCAAUAUUACGGAGA | -2.63 ± 0.21 | -1.87 ± 0.23
88 | GCGUAGCAAUAUUACGGAUG | -1.41 ± 0.16 | -1.98 ± 0.18
89 | GCGUAGCAAUAUUACGGCAA | 0.755 ± 0.46 | -1.01 ± 0.27
90 | GCGUAGCAAUAUUACGGCUU | -1.21 ± 0.11 | -0.0921 ± 0.14
91 | GCGUAGCAAUAUUACGUAGA | -3.35 ± 0.19 | -2.88 ± 0.29
92 | GCGUAGCAAUAUUACGUCUA | -1.06 ± 0.22 | -0.924 ± 0.15
93 | GCUAAGCAAUAUUACGACAA | -1.43 ± 0.18 | -2.5 ± 0.2
94 | GCUAAGCAAUAUUACGACAC | -0.804 ± 0.074 | 0.369 ± 0.11
95 | GCUAAGCAAUAUUACGACGC | -1.52 ± 0.16 | -0.603 ± 0.18
96 | GCUAAGCAAUAUUACGAGCU | -2.25 ± 0.33 | -0.165 ± 0.31
97 | GCUAAGCAAUAUUACGAGGC | -1.85 ± 0.21 | -1.6 ± 0.33
98 | GCUAAGCAAUAUUACGAGUA | -1.73 ± 0.18 | -1.31 ± 0.12
99 | GCUAAGCAAUAUUACGAUAC | -1.9 ± 0.12 | -0.355 ± 0.11
